Source: patent US20220242963A1, “B-CELL ACTIVATING CD73 ANTIBODIES” (CORVUS PHARMACEUTICALS, INC., priority 2018, published 2022)
Values joined by “and” are separate entries in the source; they are usually repeats but may differ in a detail not shown here. Identical values can stand only once.

Tests used:
[1] = Phase 1/1B clinical trial: adverse events, tolerability; type: in vivo, human
Description: The primary objectives of the study were to show safety and tolerability of the active agents, and the second objectives of the study were to identify PK/PD profiles, drug efficacy, and biomarkers. […] The adenosine gene signature was not used to select patients. The dose expansion includes treatment of non-small cell lung cancer, renal cell carcinoma, non-Hodgkin's lymphoma, and other types of cancers (e.g., bladder, prostate, pancreatic, colorectal, squamous cell cancer of the head and neck). CPI-006 was given as a one hour infusion every three weeks, and for the combination treatments 100 mg po BID of ciforadenant was administered. Biomarker assessment was conducted for the effects of CD73 expression in tumors, peripheral blood lymphocyte subsets, antibody occupancy of target, and serum cytokines.
The baseline demographics of the patients are shown in Table 2 below, and the adverse events are shown in Table 3 (where TEAE refers to treatment-related adverse events based on any grade 3 or 4 events, or 2 or more of all grades).

CD73 [2] = biological target: T1, CD73 (Homo sapiens, UniProt P21589); assay: Phase 1/1B clinical trial: CD73 receptor occupancy in peripheral blood by flow cytometry; type: in vivo; settings: for sustained CD73 receptor occupancy in peripheral blood: once every 21 days
T1 construct: endogenous in cells; host or cells: Whole blood of cancer patients (CD73+ CD8 T cells)
T1 sequence (P21589 27-549): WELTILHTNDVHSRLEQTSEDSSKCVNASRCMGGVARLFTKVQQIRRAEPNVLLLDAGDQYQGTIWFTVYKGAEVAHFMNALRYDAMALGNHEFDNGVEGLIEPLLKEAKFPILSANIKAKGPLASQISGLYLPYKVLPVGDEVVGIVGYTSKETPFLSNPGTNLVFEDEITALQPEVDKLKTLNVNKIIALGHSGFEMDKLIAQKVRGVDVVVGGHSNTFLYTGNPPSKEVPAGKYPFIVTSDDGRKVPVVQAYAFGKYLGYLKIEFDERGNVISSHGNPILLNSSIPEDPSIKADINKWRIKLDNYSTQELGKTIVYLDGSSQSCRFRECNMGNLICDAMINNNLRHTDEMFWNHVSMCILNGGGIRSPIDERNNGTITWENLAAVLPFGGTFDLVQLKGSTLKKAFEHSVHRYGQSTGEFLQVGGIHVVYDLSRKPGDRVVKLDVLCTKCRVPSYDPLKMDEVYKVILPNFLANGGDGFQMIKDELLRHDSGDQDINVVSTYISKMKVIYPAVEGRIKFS
Experimental: FIGS. 3A-3D show the pharmacokinetics/pharmacodynamics and CD73 receptor occupancy of CPI-006 after a first infusion in human patients. […] The dotted line marks one-hundred percent occupancy CD73 receptor occupancy. […]
With reference to Table 1, serum samples were collected from patients treated with CPI-006 alone (i.e., monotherapy) and levels of free CPI-006 were measured by ELISA, as shown in FIG. 3A. Whole blood samples from patients treated with CPI-006 alone were fixed and receptor occupancy was measured by flow cytometry gating on CD73+CD8 T cells, as shown in FIG. 3B. As illustrated in FIGS. 3A-3D, receptor exposure to CPI-006 increases and clearance decreases with increasing doses of CPI-006, and CIP-006 is detectable for 21 days after administration of a single dose of 6 mg/kg or higher. […] Other results from the study are described below and in Table 4. BLQ is below limit of quantification. TBD is to be determined.

CD73 [3] = biological target: T1, CD73; assay: CD73 catalytic activity in MDA-MB-231 cells (phosphate, Sensolyte Malachite Green); type: cell-based; settings: 250 μM AMP, FIG. 1B
Experimental: (§1) FIG. 1A provides a schematic of CD73 structure. […] Each symbol represents an independent donor.
(§2) MDA-MB-231 cells (e.g., available at ATCC® as HTB-26™) were incubated with a human IgG1 isotype control, CPI-006, CPX-016, or adenosine 5′-(α,β-methylene)diphosphate (also known as APCP, which is a small molecule inhibitor of CD73 enzymatic activity), prior to addition of 250 μM of adenosine monophosphate (AMP). Phosphate levels were measured in the cell culture supernatant using the Sensolyte Malachite Green assay kit. Peripheral blood mononuclear cells (PBMC) were isolated from healthy donors and labeled with CellTrace™ Violet (ThermoFisher Scientific) prior to culture with 1 μg/mL anti-CD3 and anti-CD28, 200 units/mL IL-2, 3 mM AMP and indicated treatments (CPI-006 at 500 nM; CPX-016 at 500 nM; human IgG1 isotype control at 890 nM). T cell proliferation was measured by Cell Trace Violet dilution and was defined by gating relative to unstimulated PBMC (FIG. 1C). IFN-gamma production was measured in cell culture supernatants by AlphaLISA (FIG. 1D). Results shown in FIGS. 1B-D illustrate that inhibition of CD73 activity has an agonistic effect on immunomodulatory activity.

solid tumors = assay: Phase 1/1B clinical trial: disease control and tumor size; type: in vivo, human
Description: FIGS. 6A-6B show cancer patients being treated with various doses of CPI-006 alone (FIG. 6A) or a combination therapy of CPI-006 and ciforadenant (FIG. 6B). A cycle is once every 21 days. Disease assessment occurred every 3-4 cycles. […] HDNCK refers to head and neck cancer. mCRPC refers to metastatic castration-resistant prostate cancer. BLADD refers to bladder cancer. PANC refers to pancreatic cancer. COLORECT refers to colorectal cancer. RCC refers to renal cell carcinoma. SD indicates stable disease and PD indicates progressive disease.
The highest line at day 10 represents 1 mg/kg, the second highest line at day 10 represents 3 mg/kg, the second lowest line at day 10 represents 6 mg/kg, and the lowest line at day 10 represents 12 mg/kg.
Cancer patients treated with CPI-006 monotherapy or a combination therapy of CPI-006 and ciforadenant were assessed for disease control.

PBMC = assay: T cell proliferation and IFN-gamma secretion of healthy donor PBMC cultured with AMP; type: cell-based, human; settings: CPI-006 at 500 nM, 3 mM AMP, anti-CD3 and anti-CD28, IL-2; FIGS. 1C-1D
Experimental: as §1, §2

[4] = cancer patients, monotherapy n = 12, combination n = 8
[5] = pre-dose versus 30 minutes after administration, FIG. 3D

B1: CPI-006: humanized CD73 antibody, wherein the light chain is SEQ ID NO:8 and the heavy chain is SEQ ID NO:7; IgG1 Fcγ receptor-deficient (antibody, V domains shown)
VH: QVQLVQSGAEVEKPGASVKVSCKASGYTFTSYWITWVRQAPGQGLEWMGDIYPGSGNTNYNEKFKTRVTITADKSTSTAYMELSSLRSEDTAVYYCAKEGGLTTEDYALDYWGQGTLVTV
VL: EIVLTQSPATLSLSPGERATLSCRASKNVSTSGYSYMHWYQQKPGQAPRLLIYLASNLESGIPPRFSGSGYGTDFTLTINNIESEDAAYYFCQHSRELPFTFGQGTKVEIK
- Adverse Events Number of Patients: Anemia, All Grades [1, 4]: 1
- Adverse Events Number of Patients: Anemia, Grade 3 or 4 [1, 4]: 1
- Adverse Events Number of Patients: Chills, All Grades [1, 4]: 4
- Adverse Events Number of Patients: Chills, Grade 3 or 4 [1, 4]: 0
- Adverse Events Number of Patients: Diarrhea, All Grades [1, 4]: 1
- Adverse Events Number of Patients: Diarrhea, Grade 3 or 4 [1, 4]: 0
- Adverse Events Number of Patients: Fatigue, All Grades [1, 4]: 2
- Adverse Events Number of Patients: Fatigue, Grade 3 or 4 [1, 4]: 0
- Adverse Events Number of Patients: Headache, All Grades [1, 4]: 2
- Adverse Events Number of Patients: Headache, Grade 3 or 4 [1, 4]: 0
- Adverse Events Number of Patients: Infusion-related reaction, All Grades [1, 4]: 2
- Adverse Events Number of Patients: Infusion-related reaction, Grade 3 or 4 [1, 4]: 0
- Adverse Events Number of Patients: Nausea, All Grades [1, 4]: 3
- Adverse Events Number of Patients: Nausea, Grade 3 or 4 [1, 4]: 0
- Adverse Events Number of Patients: Pruritus, All Grades [1, 4]: 2
- Adverse Events Number of Patients: Pruritus, Grade 3 or 4 [1, 4]: 0
- Adverse Events Number of Patients: Subjects with any TEAE, All Grades [1, 4]: 8
- Adverse Events Number of Patients: Subjects with any TEAE, Grade 3 or 4 [1, 4]: 1
- dose-limiting toxicity ([1]; doses of 1, 3, and 6 mg/kg): no dose-limiting toxicity
- tolerability ([1]; doses of 1, 3, and 6 mg/kg): well tolerated
- grade 3/4 adverse events ([1]; patients of Table 4, CPI-006 monotherapy 1, 3, 6 mg/kg): No grade 3/4 adverse events were reported
- sustained CD73 receptor occupancy in peripheral blood (CD73 [2]; 1 mg/kg and 3 mg/kg doses): not
- CD73 receptor occupancy on peripheral B cells (CD73 [2]; 3 mg/kg, patients 4-6 (Pancreatic, Pancreatic, Prostate)): 88.12% and 74.57% and 58.19%
- sustained CD73 receptor occupancy in peripheral blood (CD73 [2]; 6 mg/kg and 12 mg/kg doses): sustained CD73 receptor occupancy
- CD73 receptor occupancy on peripheral B cells (CD73 [2]; 6 mg/kg, patients 7-9 (Colorectal, Prostate, SCHN)): 97.90% and 98.31% and 101.60%
- receptor occupancy dose dependence (CD73 [2]; clinical data, 1, 3, and 6 mg/kg): dose proportional
- CPI-006 binding site on cell surface CD73 (free CD73) (CD73 [2]; [5]): occupied
- total cell surface CD73 (CD73 [2]; [5]): remains unchanged
- adenosine production (CD73 catalytic activity) (CD73 [3]): blocks adenosine production
- size of a prostate tumor (solid tumors; after 2 cycles of treatment, i.e., after 42 days, FIG. 7E): reduction in the size
- disease control (solid tumors; cancer patients, cycle once every 21 days, FIGS. 6A-6B): higher doses of CPI-006 monotherapy provide longer term disease control
- target lesion (solid tumors; one metastatic prostate cancer patient, 6 mg/kg monotherapy, treatment ongoing through 11 cycles, FIG. 7E): decrease in the target legion
- adenosine-mediated immunosuppression (T-cell proliferation, IFN-gamma secretion) (PBMC): relieves adenosine-mediate immunosuppression
